Data reported in article PMC11021519, “Niche Tet maintains germline stem cells independently of dioxygenase activity” (The EMBO Journal, 2024).

Biological target: T1, Myc-Tet-C (Drosophila, UniProt M9NEY8-5 1846-2921)
T1 construct: Drosophila Tet, C-terminal domain, aa1846-2921 of Tet-PF (FBpp0306013); also called C-terminal domain of Tet; source: bacteria (E. coli), pET32a(+), purified (Ni-NTA); not shown: Myc, N-terminal, kept
Assay: pull-down; in vitro binding of two purified proteins (10 μg of each), overnight at 4 °C in Buffer A (50 mM Tris-HCl pH 7.5, 50 mM NaCl, 5% glycerol, 1 mM EDTA, 0.1% Igepal CA-630) with Dynabeads Protein G and 5 μg antibody (anti-HA, anti-Myc or anti-Strep); six washes; immunoblot
Conditions: both partners purified

T1 sequence (M9NEY8 1785-2860): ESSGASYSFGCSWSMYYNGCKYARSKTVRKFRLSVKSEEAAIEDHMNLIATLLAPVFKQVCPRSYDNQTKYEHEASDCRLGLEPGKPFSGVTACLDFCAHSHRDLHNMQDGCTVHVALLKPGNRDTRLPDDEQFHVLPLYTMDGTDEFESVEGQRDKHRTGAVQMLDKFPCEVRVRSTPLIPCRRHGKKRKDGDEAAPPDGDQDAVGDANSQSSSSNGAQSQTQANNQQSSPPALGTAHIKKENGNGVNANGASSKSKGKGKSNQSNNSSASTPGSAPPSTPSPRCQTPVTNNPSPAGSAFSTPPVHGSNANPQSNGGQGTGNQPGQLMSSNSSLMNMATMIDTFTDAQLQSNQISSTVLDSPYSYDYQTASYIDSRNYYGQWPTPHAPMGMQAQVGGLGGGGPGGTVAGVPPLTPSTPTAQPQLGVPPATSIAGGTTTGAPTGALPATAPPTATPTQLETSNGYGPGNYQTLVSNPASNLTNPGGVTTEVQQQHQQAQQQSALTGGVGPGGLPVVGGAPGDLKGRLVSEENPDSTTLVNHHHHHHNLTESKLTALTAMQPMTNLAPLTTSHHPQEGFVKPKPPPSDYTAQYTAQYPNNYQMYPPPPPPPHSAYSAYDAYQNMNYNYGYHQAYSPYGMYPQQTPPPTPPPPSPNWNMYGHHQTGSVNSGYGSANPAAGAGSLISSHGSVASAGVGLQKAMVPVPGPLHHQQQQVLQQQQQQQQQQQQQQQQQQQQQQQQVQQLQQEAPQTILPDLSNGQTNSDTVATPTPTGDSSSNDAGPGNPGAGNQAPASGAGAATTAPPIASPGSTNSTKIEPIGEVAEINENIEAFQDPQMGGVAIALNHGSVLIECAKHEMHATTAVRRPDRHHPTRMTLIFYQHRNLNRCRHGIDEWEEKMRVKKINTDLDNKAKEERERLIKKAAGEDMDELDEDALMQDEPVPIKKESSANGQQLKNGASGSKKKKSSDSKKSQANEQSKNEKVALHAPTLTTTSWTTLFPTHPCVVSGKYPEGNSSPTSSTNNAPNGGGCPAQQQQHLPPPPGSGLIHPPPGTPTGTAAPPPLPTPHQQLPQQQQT

Binder | binding result
HA-Stat92E (natural protein, Drosophila, UniProt Q24151 1-761, looked up, Drosophila Stat92E, full-length isoform Stat92E-PF; source: bacteria (E. coli), pET32a(+), purified (Ni-NTA); not shown: HA, N-terminal, kept) MSLWKRISSHVDCEQRMAAYYEEKGMLELRLCLAPWIEDRIMSEQITPNTTDQLERVALKFNEDLQQKLLSTRTASDQALKFRVVELCALIQRISAVELYTHLRSGLQKELQLVTEKSVAATAGQSMPLNPYNMNNTPMVTGYMVDPSDLLAVSNSCNPPVVQGIGPIHNVQNTGIASPALGMVTPKVELYEVQHQIMQSLNEFGNCANALKLLAQNYSYMLNSTSSPNAEAAYRSLIDEKAAIVLTMRRSFMYYESLHEMVIHELKNWRHQQAQAGNGAPFNEGSLDDIQRCFEMLESFIAHMLAAVKELMRVRLVTEEPELTHLLEQVQNAQKNLVCSAFIVDKQPPQVMKTNTRFAASVRWLIGSQLGIHNNPPTVECIIMSEIQSQRFVTRNTQMDNSSLSGQSSGEIQNASSTMEYQQNNHVFSASFRNMQLKKIKRAEKKGTESVMDEKFALFFYTTTTVNDFQIRVWTLSLPVVVIVHGNQEPQSWATITWDNAFAEIVRDPFMITDRVTWAQLSVALNIKFGSCTGRSLTIDNLDFLYEKLQREERSEYITWNQFCKEPMPDRSFTFWEWFFAIMKLTKDHMLGMWKAGCIMGFINKTKAQTDLLRSVYGIGTFLLRFSDSELGGVTIAYVNENGLVTMLAPWTARDFQVLNLADRIRDLDVLCWLHPSDRNASPVKRDVAFGEFYSKRQEPEPLVLDPVTGYVKSTLHVHVCRNGENGSTSGTPHHAQESMQLGNGDFGMADFDTITNFENF | binds
Strep-Bap55 (natural protein, Drosophila, UniProt Q7K012 1-425, looked up, Drosophila Bap55, full-length Bap55-PA; pFastBac-HTB vectors usually also add an N-terminal His6 tag; source: insect cells (baculovirus), purified (Strep-Tactin XT, Superdex 200)) MSGGTMLYGGDEIGALVFDPGHHSLRVGYAQEDSPKAEIPSVVGIGAAPETNLDPETKTDNNATPNNADQRKFYVDTNYVTVPRSNMEVQTYMKDGMIDNWDLFEKVIDYAYANVIQSEPEYHPVLFSEASWNVRNNREKLTELMFEKYNVPAFFLVKNAVLAAFSSGRATALVVDSGATHTSAVPVHEGYVLSQAVVKSPLGGDFLSRQCRQHLEKHGIDLSPVYKIASKDVVKERDNGRFTLRKLPENLTQSWQNYMLQLMMQDFQMNVLQVLENPFDERVAAQIPTVHYEFPNGYHQDFGSERFKIAESLFDNAMLGAGQLASTSVGMCDADVRLSLFGSVVVTGGNTLLQGFPERLNRDLQLRAPSNTRLKMISANGSVERRFGAWIGGSILASIGTFQQMWISSQEYEEAGKSQVERKCP | binds
